The values below come from publication PMC7840905.

Experiment [1] concerns the target SARS-CoV-2 Nsp15 H235A (SARS-CoV-2). The experiment in a line: cryo-EM structure.
For experiment [2] the target is unchanged. As to the kind of experiment: SEC. A general note: In gel filtration, larger molecules generally elute earlier.
The target in experiment [3] is SARS-CoV-2 Nsp15 H250A (SARS-CoV-2). The experiment in a line: SEC.

What is called stoichiometry N is a count of units in the complex or per binding partner. Consider SARS-CoV-2 Nsp15 H235A (enzyme), for which the stoichiometry N in experiment [1] and in experiment [2] was 6 each time.

SARS-CoV-2 Nsp15 H250A (enzyme) came in with a stoichiometry N in experiment [3] of 6.
